Source: patent US20160355553A1 (Janssen / Centocor, published 2016)

Legend:
Assay in all cases: cell-based or functional assay
[1] = target: hemagglutinin of influenza virus A/EW/MPF461/07 (H5) (influenza A virus H5)
[2] = target: hemagglutinin of influenza virus A/EW/MPD411/07 (H6) (influenza A virus H6)
[3] = target: hemagglutinin of influenza virus A/Ck/HK/SSP176/09 (H9) (influenza A virus H9)
[4] = target: hemagglutinin of influenza virus A/Hiroshima/52/2005 (H3) (influenza A virus H3)
[5] = target: hemagglutinin of influenza virus A/Brisbane/10/2007 (H3) (influenza A virus H3)
[6] = target: hemagglutinin of influenza virus A/WF/MPA 892/06 (H4) (influenza A virus H4)

B1: CR9114 (antibody, V domains shown)
VH: QVQLVQSGAEVKKPGSSVKVSCKSSGGTSNNYAISWVRQAPGQGLDWMGGISPIFGSTAYAQKFQGRVTISADIFSNTAYMELNSLTSEDTAVYFCARHGNYYYYSGMDVWGQGTTVTVSS
VL: SYVLTQPPAVSGTPGQRVTISCSGSDSNIGRRSVNWYQQFPGTAPKLLIYSNDQRPSVVPDRFSGSKSGTSASLAISGLQSEDEAEYYCAAWDDSLKGAVFGGGTQLTVL
Q: Which results are given for B1?
A: virus neutralization assay on MDCK cells, geomean IC50 [1]: 10.5 µg/mL; virus neutralization assay on MDCK cells, geomean IC50 [2]: 10.5 µg/mL; virus neutralization assay on MDCK cells, geomean IC50 [3]: 6.3 µg/mL; virus neutralization assay on MDCK cells, geomean IC50 [4]: 12.5 µg/mL; virus neutralization assay on MDCK cells, geomean IC50 [5]: 5.6 µg/mL; virus neutralization assay on MDCK cells, geomean IC50 [6]: 0.8 µg/mL
